The values that follow come from PMC12006300 (Nature Communications, 2025).

The term Kd denotes the concentration at which binding is half-saturated.

The assay concerns the target T1, Recombinant human PDZD8 (1, 28–)—FLAG (human, UniProt Q8NEN9 1-1154, (1, 28–), ∆TM).
T1 sequence (looked up): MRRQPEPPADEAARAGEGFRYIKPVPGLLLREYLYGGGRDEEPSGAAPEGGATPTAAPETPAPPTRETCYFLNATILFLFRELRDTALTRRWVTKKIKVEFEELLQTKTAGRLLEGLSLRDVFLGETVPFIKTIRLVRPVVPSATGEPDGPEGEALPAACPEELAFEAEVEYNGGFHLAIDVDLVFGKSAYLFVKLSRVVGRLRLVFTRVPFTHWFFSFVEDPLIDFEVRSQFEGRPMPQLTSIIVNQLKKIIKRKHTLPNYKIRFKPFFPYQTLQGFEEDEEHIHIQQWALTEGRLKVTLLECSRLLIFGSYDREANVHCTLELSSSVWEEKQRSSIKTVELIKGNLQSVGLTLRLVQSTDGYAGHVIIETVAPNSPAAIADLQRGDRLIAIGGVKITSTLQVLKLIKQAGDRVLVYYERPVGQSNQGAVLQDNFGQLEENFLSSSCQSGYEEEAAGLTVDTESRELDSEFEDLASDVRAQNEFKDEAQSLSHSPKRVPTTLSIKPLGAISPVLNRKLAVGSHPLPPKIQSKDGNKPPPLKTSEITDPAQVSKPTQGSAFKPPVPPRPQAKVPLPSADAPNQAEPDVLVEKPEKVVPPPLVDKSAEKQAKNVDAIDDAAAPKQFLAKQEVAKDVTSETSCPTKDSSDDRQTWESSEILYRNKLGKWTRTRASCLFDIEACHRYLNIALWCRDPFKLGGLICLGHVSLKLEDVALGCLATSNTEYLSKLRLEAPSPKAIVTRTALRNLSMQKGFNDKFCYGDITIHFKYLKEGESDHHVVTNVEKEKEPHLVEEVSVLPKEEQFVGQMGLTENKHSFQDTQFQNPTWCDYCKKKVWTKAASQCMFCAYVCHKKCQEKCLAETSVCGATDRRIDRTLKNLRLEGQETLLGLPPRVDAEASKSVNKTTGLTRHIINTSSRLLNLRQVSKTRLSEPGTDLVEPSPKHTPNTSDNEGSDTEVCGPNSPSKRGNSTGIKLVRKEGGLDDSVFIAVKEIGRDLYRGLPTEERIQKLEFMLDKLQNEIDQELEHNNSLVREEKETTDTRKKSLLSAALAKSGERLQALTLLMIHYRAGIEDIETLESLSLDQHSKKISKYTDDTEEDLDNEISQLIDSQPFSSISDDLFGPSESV
Briefly: SPR. (SPR reads the build-up and loss of mass on a sensor chip optically.)

B1: Recombinant human FKBP8 (1–380)—Histag (domain or fragment, UniProt Q14318 1-380, looked up)
chain: MASCAEPSEPSAPLPAGVPPLEDFEVLDGVEDAEGEEEEEEEEEEEDDLSELPPLEDMGQPPAEEAEQPGALAREFLAAMEPEPAPAPAPEEWLDILGNGLLRKKTLVPGPPGSSRPVKGQVVTVHLQTSLENGTRVQEEPELVFTLGDCDVIQALDLSVPLMDVGETAMVTADSKYCYGPQGRSPYIPPHAALCLEVTLKTAVDGPDLEMLTGQERVALANRKRECGNAHYQRADFVLAANSYDLAIKAITSSAKVDMTFEEEAQLLQLKVKCLNNLAASQLKLDHYRAALRSCSLVLEHQPDNIKALFRKGKVLAQQGEYSEAIPILRAALKLEPSNKTIHAELSKLVKKHAAQRSTETALYRKMLGNPSRLPAKCPG
As for B1, the Kd stood at 142 µM.
